Molecular target: human LAG‐3 on JRT LAG‐3^+ C8 cells (human) (UniProt P18627)
Experiment: flow cytometry on cells

human LAG‐3 on JRT LAG‐3^+ C8 cells (human), sequence (P18627 23-525): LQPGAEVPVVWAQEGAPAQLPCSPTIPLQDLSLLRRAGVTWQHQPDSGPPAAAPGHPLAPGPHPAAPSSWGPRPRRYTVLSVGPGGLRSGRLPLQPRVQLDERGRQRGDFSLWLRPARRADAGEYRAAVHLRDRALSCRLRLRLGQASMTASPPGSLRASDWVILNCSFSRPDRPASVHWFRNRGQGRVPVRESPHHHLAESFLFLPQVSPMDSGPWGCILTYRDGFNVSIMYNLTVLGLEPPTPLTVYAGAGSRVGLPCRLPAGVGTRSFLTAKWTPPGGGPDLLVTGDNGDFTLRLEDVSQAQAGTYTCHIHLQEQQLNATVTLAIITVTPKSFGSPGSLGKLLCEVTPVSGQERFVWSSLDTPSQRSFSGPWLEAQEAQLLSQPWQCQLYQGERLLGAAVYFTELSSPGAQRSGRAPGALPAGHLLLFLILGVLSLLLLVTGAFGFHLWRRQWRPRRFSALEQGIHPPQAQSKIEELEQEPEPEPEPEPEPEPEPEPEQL

PE labeled pHLA‐DR1 dextramers loaded with HA_(306‐318) peptide (peptide-MHC)
percent of cells with detectable multimer staining: 19%
